From patent US20210147812A1, “Method of Preparing Cancer Spheroid and Method of Selecting Colorectal Cancer Patient” (Kyo Diagnostics K.K., priority 2017, published 2021)

Test system: CRC-TIC spheroid lines that carried wild-type RAS/RAF genes (HC6T, HC9T, HC11T, HC21T)
Assay: Stimulation of spheroid growth with EGF and/or bFGF, luminescence-based growth monitoring (GEI)
Type: cell-based, human
Details: HC11T
Experimental: Luminescence was determined daily or 3 days later. The cell growth rate for each well was estimated as the proportion of photon counts to those on day 1. Four or six replicates (with similar statistical power) were analyzed for each data point in all experiments except for the chemical compound screening assays.
To investigate whether EGF and bFGF helped spheroid proliferation in the cancer medium as described above, we cultured with EGF and/or bFGF four slow-growing CRC-TIC spheroid lines that carried wild-type RAS/RAF genes (HC6T, HC9T, HC11T, HC21T). Because EGF/bFGF facilitated the growths of these spheroid lines substantially (FIG. 3A), we then quantified their effects by the luminescence-based growth monitoring. To calibrate the effects, we introduced the growth effect index (GEI) defined as the relative growth rate of a treated group to that of its solvent-only control in each paired assay. […] The extents of growth promotion by EGF and bFGF were different depending on the spheroid line. […] In another spheroid line (HC21T), the effects were similar between the two growth factors (FIG. 3B).

B1: EGF: epidermal growth factor, recombinant human protein (protein, UniProt P01133 23-1207, looked up)
Pro-epidermal growth factor: PQHWSCPEGTLAGNGNSTCVGPAPFLIFSHGNSIFRIDTEGTNYEQLVVDAGVSVIMDFHYNEKRIYWVDLERQLLQRVFLNGSRQERVCNIEKNVSGMAINWINEEVIWSNQQEGIITVTDMKGNNSHILLSALKYPANVAVDPVERFIFWSSEVAGSLYRADLDGVGVKALLETSEKITAVSLDVLDKRLFWIQYNREGSNSLICSCDYDGGSVHISKHPTQHNLFAMSLFGDRIFYSTWKMKTIWIANKHTGKDMVRINLHSSFVPLGELKVVHPLAQPKAEDDTWEPEQKLCKLRKGNCSSTVCGQDLQSHLCMCAEGYALSRDRKYCEDVNECAFWNHGCTLGCKNTPGSYYCTCPVGFVLLPDGKRCHQLVSCPRNVSECSHDCVLTSEGPLCFCPEGSVLERDGKTCSGCSSPDNGGCSQLCVPLSPVSWECDCFPGYDLQLDEKSCAASGPQPFLLFANSQDIRHMHFDGTDYGTLLSQQMGMVYALDHDPVENKIYFAHTALKWIERANMDGSQRERLIEEGVDVPEGLAVDWIGRRFYWTDRGKSLIGRSDLNGKRSKIITKENISQPRGIAVHPMAKRLFWTDTGINPRIESSSLQGLGRLVIASSDLIWPSGITIDFLTDKLYWCDAKQSVIEMANLDGSKRRRLTQNDVGHPFAVAVFEDYVWFSDWAMPSVMRVNKRTGKDRVRLQGSMLKPSSLVVVHPLAKPGADPCLYQNGGCEHICKKRLGTAWCSCREGFMKASDGKTCLALDGHQLLAGGEVDLKNQVTPLDILSKTRVSEDNITESQHMLVAEIMVSDQDDCAPVGCSMYARCISEGEDATCQCLKGFAGDGKLCSDIDECEMGVPVCPPASSKCINTEGGYVCRCSEGYQGDGIHCLDIDECQLGEHSCGENASCTNTEGGYTCMCAGRLSEPGLICPDSTPPPHLREDDHHYSVRNSDSECPLSHDGYCLHDGVCMYIEALDKYACNCVVGYIGERCQYRDLKWWELRHAGHGQQQKVIVVAVCVVVLVMLLLLSLWGAHYYRTQKLLSKNPKNPYEESSRDVRSRRPADTEDGMSSCPQPWFVVIKEHQDLKNGGQPVAGEDGQAADGSMQPTSWRQEPQLCGMGTEQGCWIPVSSDKGSCPQVMERSFHMPSYGTQTLEGGVEKPHSLLSANPLWQQRALDPPHQMELTQ
modifications: Pro-epidermal growth factor
notes: epidermal growth factor, recombinant human protein
B1 was tested, and the “extent of growth promotion, bFGF versus EGF” value was “vice versa”.
